Assays:
[1] = biological target: DENV-2 E protein Domain III (Dengue virus serotype 2, strain Thailand/16681/1984); test: BLI, mAb on AR2G biosensor, 20 ug/mL Domain III, 1200 sec
[2] = biological target: DENV-4 E protein Domain III (Dengue virus serotype 4, strain Indonesia/1036/1976); test: as above
[3] = biological target: DENV-2 VLP (Dengue virus serotype 2, strain Thailand/16681/84); test: Luminex, VLP-coupled beads
[4] = biological target: Dengue Virus Serotype 2 envelope protein (Dengue virus serotype 2, strain Thailand/16681/84); test: Luminex bead assay (antigen on MagPlex beads, MFI)

| Substance | Response (nm) [1] | Response (nm) [2] | EC50 [3] | EC50 (read off the curve) [4] |
| --- | --- | --- | --- | --- |
| 3H5 (antibody) | 0.488 nm | – | – | – |
| 4G2 (antibody) | 0.0174 nm | 0.056 nm | – | – |
| 777-2 (DV2-3H5) (antibody) | 0.303 nm | – | 0.0749 µg/mL | 0.06 µg/mL |

Source: patent US20260167703A1
